Blank lines part the entries; values can stand above or below the substance they belong to.
Legend:
[1] = target: human BDCA2 (full-length, cell surface) (human) (UniProt Q8WTT0); assay: FACS dot plot (SSC-H against FL4-H) of the CHO cells with lower BDCA2 expression used in FIG 22B, stained with APC-labelled AC144; gate from about 2x10^1 to 10^4
[2] = target: human BDCA2 (full-length, cell surface) (human) (UniProt Q8WTT0); assay: FACS dot plot (SSC-H against FL4-H) of the CHO cells EAG2456 T1F2 Clone 34.16.7 with high BDCA2 expression, stained with APC-labelled AC144; cells spread from about 10^1 to 10^4
human C1q (human) [3] = target: human C1q (human) (UniProt P02745); assay: C1q ELISA: antibody coated in a dilution series, human C1q at 2 µg/mL, read at 450 nm; fit of a flat curve; the unit is from the legend paragraph 61, none on the axis; A 0.06, B 41.873, D 0.09, R^2 0.735
Chain of human C1q (human) (P02745 23-245 limits assumed, chain 1 of 3): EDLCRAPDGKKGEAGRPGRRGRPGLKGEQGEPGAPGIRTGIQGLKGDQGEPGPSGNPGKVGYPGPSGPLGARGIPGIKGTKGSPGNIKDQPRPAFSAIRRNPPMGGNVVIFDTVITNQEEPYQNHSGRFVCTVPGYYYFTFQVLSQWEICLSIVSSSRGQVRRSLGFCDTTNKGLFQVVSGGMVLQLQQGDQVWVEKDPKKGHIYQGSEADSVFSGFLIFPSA
Chain of human C1q (human) (P02746 28-253 limits assumed, chain 2 of 3, further chain): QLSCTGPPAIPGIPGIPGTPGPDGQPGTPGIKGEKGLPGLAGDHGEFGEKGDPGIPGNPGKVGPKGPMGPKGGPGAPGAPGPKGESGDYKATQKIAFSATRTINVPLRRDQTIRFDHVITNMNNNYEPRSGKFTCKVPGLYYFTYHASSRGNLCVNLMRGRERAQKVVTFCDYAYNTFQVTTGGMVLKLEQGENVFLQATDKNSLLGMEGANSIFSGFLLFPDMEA
Chain of human C1q (human) (P02747 29-245 limits assumed, chain 3 of 3, further chain): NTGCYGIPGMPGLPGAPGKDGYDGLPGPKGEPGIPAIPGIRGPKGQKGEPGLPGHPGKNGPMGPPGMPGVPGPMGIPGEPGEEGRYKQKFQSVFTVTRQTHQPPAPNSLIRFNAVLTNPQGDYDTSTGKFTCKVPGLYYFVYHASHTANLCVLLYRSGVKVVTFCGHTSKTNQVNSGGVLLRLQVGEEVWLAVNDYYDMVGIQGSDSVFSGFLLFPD

human C1q (human) [4] = target: human C1q (human) (UniProt P02745); assay: C1q ELISA: antibody coated in a dilution series, human C1q at 2 µg/mL, read at 450 nm; column C (midpoint, the C value of paragraph 430) of the printed 4-parameter fit; the axis reads Concentration with no unit, the unit of the coated antibody is from the legend paragraph 61; A 0.06, B 2.093, D 1.573, R^2 0.997

Chain of human BDCA2 (full-length, cell surface) (human) (Q8WTT0 whole entry): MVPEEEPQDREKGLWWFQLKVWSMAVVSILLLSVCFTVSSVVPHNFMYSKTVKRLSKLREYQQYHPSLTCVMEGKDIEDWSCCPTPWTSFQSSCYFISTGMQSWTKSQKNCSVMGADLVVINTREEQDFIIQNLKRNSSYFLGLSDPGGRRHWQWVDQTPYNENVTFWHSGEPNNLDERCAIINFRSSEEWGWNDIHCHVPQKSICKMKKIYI
Chain of 5C8 control (antibody) (heavy): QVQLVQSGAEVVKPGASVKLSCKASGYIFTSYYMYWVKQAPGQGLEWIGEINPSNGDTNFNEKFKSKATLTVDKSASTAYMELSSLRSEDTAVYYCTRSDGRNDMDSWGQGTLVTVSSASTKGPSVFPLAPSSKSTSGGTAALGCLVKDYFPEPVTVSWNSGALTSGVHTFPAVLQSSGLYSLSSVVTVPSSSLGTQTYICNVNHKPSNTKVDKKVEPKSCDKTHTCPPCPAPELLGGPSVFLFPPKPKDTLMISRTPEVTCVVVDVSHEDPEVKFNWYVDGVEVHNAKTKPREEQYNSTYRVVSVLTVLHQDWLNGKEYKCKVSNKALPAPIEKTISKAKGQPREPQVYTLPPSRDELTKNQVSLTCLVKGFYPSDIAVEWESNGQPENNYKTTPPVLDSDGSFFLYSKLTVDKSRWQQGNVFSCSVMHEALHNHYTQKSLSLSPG
Chain of 5C8 control (antibody) (light): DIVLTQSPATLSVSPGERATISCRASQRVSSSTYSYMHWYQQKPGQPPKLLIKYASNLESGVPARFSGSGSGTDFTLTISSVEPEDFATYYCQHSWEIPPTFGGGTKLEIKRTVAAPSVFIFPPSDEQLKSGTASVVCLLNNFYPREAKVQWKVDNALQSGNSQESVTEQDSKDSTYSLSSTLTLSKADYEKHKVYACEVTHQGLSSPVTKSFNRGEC

- frequency printed in the gate BDCA2 (percent of cells) [1]: 87.8
- frequency printed in the FL4-positive gate (percent of cells) [2]: 99.4
Substance: anti-human BDCA2 AC144 mAb (Miltenyi Biotec) (antibody)

- C of the 4-parameter fit (midpoint), curve flat (human C1q (human) [3]): 0.062 µg/mL
Substance: 5c8 G4P/G1agly (antibody)

- EC50 (human C1q (human) [4]): 2.21 µg/mL
Substance: 5C8 control (antibody)
